Test results published in patent US20200255836, “NUCLEIC ACID APTAMER FOR INHIBITING ACTIVITY OF GENOME-EDITING ENZYME” (NATIONAL INSTITUTE OF ADVANCED INDUSTRIAL SCIENCE AND …, published 2020).

What was measured:
Cas9 (His-Cas9) [1] = biological target: T1, Cas9 (His-Cas9) (Streptococcus pyogenes, UniProt Q99ZW2 Q99ZW2:1-1368); assay: EMSA; Cas9 without guide; 250 mM NaCl, 1 mM MgCl2, tRNA; conditions: tags: His tag, expressed in E. coli; hairpin, 7-base loop
Description: (§1) The interaction between Cas9 protein and each nucleic acid aptamer having inhibitory activity was analyzed by gel shift assay. The detailed experimental conditions are as follows.
(§2) Amounts of 2 pmol of Cas9 protein and 20 pmol of each nucleic acid aptamer (s21, s21-2, s21-mm2, tetra, and St2-1SA (aptamer against streptavidin)) were incubated at normal temperature for 30 minutes in a binding buffer (20 mM Tris/HCl pH 8.0, 250 mM NaCl, 1 mM MgCl₂, 2.5% glycerol, 0.05% Tween-20, and 0.05 mg/ml tRNA). Then, the obtained product was electrophoresed on 8% acrylamide gel, and the gel was stained with SYBR Gold (Thermo Fisher Scientific Inc.), followed by analysis with Bio-Rad ChemiDoc XRS image analysis system (Bio-Rad Laboratories, Inc.). The sequence of St2-1SA is as described below (Table 13).

Cas9 (His-Cas9) [2] = biological target: T1, Cas9 (His-Cas9); assay: EMSA; no complex band; 250 mM NaCl, 1 mM MgCl2, tRNA; conditions: tags: His tag, expressed in E. coli; hairpin
Description: as §1, §2

Cas9 (His-Cas9) [3] = biological target: T1, Cas9 (His-Cas9); assay: SPR; 5'-biotin s21 immobilized; Cas9 without guide; 20 mM Tris pH 8.0, 150 mM NaCl, 1 mM MgCl2; conditions: tags: His tag, expressed in E. coli; hairpin (stem-loop)
Description: In order to calculate the dissociation constant (Kd) between Cas9 protein and each nucleic acid aptamer, surface plasmon resonance analysis was conducted. The detailed experimental approach was as follows.
5′-Biotinylated s21 was prepared and was immobilized on a streptavidin sensor chip (GE Healthcare Japan Corp.). Then, different concentrations (2.5 nM, 5 nM, 10 nM, and 20 nM) of Cas9 protein were loaded in a running buffer (20 mM Tris/HCl pH 8.0, 150 mM NaCl, 1 mM MgCl₂, and 0.005% Tween-20) to obtain sensorgrams. Kd was calculated with Biacore evaluation software package (GE Healthcare Japan Corp., Ver 2.0). Tetra was used as a control to conduct a similar test.

Cas9 (His-Cas9) [4] = biological target: T1, Cas9 (His-Cas9); assay: EMSA; negative control; no complex band; conditions: tags: His tag, expressed in E. coli
Description: as §1, §2

T1 sequence (Q99ZW2 whole entry, one chain of several): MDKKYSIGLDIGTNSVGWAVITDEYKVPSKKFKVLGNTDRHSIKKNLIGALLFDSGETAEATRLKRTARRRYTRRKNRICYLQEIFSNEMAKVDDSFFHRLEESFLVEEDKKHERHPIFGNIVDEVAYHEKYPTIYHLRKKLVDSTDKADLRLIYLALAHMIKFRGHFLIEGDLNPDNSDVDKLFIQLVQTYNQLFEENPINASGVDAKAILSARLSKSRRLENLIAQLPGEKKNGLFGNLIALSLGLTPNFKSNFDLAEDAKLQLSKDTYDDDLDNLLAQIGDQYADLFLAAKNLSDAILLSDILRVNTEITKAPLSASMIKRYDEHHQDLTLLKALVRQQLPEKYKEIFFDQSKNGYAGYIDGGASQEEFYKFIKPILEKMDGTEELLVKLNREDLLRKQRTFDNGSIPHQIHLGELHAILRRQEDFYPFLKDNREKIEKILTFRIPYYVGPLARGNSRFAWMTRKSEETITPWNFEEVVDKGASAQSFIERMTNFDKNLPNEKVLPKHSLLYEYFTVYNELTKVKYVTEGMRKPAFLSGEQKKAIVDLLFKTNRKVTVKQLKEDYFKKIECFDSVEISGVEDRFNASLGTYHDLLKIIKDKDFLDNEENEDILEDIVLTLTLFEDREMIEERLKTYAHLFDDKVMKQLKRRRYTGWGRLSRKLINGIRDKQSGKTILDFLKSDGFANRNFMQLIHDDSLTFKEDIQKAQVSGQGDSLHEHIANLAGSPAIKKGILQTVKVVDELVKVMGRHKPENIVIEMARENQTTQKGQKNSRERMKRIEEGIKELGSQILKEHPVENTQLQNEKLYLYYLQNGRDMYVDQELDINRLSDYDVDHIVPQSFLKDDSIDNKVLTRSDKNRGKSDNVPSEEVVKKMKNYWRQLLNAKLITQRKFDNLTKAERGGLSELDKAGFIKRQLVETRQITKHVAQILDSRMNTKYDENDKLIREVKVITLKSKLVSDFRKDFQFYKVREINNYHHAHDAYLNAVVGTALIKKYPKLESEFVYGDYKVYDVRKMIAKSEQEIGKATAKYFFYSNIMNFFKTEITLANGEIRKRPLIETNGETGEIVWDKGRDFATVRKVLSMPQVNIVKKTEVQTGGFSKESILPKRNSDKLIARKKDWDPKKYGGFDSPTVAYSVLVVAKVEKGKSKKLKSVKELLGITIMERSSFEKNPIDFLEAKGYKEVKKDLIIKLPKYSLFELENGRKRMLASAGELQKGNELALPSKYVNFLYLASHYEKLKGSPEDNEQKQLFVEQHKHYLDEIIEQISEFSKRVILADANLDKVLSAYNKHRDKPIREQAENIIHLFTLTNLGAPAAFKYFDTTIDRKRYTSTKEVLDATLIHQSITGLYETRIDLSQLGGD

## GAGGCTCTCACATCGCGCCTTTCGGTGTGAGAGCCTC (ssDNA) [s21-2]
Cas9 (His-Cas9) [1]
  binding result: binds

## GAGGCTCTCACAGCGCGCCTTTCGTTGTGAGAGCCTC (ssDNA) [s21-2mm2]
Cas9 (His-Cas9) [2]
  binding result: no binding

## GAGGCTCTCACATCGCGCCTTTCCCCAGCTTTCGGTGTGAGAGCCTC (ssDNA) [s21]
Cas9 (His-Cas9) [3]
  Kd: 0.57 nM

## ATTGACCGCTGTGTGACGCAACACTCAAT (ssDNA) [St2-1SA (streptavidin aptamer)]
Cas9 (His-Cas9) [4]
  binding result: no binding
